Test results as given in the supplement of paper PMC9112550, “Optimization of the antimicrobial peptide Bac7 by deep mutational scanning” (BMC Biology, 2022).

System: Escherichia coli TOP10
Assay: shrunken log2 fold change of peptide-encoding DNA abundance (4.5 h post-induction vs induction); higher = less antimicrobial activity (less host growth inhibition)
Details: time post-induction: 4.5 h; library: site-saturation at positions 5, 18, 19, 20
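Further: peptides expressed intracellularly from a pBAD plasmid library in pooled LB shake-flask culture, induced with 0.3% L-arabinose, DNA abundance read by NGS, three biological replicates, DESeq2 with apeglm shrinkage.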

| Sequence | shrunken log2 fold change |
| --- | --- |
| RRIRVRPPRLPRPRPRPDATPRP | 0.299 |
| RRIRGRPPRLPRPRPRPEMRPRP | 2.35 |
| RRIRCRPPRLPRPRPRPRYKPRP | -0.141 |
| RRIRPRPPRLPRPRPRPFAIPRP | -0.232 |
| RRIRGRPPRLPRPRPRPDNYPRP | 0.0266 |
| RRIRRRPPRLPRPRPRPYGVPRP | 0.037 |
| RRIRPRPPRLPRPRPRPMAMPRP | -0.146 |
| RRIRNRPPRLPRPRPRPAPPPRP | 0.584 |
| RRIRVRPPRLPRPRPRPWWPPRP | 0.162 |
| RRIRNRPPRLPRPRPRPWPAPRP | 0.0494 |
| RRIRMRPPRLPRPRPRPDVNPRP | 0.0361 |
| RRIRTRPPRLPRPRPRPYQGPRP | -0.0132 |
| RRIRMRPPRLPRPRPRPVYQPRP | -0.372 |
| RRIRARPPRLPRPRPRPMVKPRP | -0.00629 |
| RRIRGRPPRLPRPRPRPMPCPRP | 0.104 |
| RRIRPRPPRLPRPRPRPRQDPRP | 0.351 |
| RRIRIRPPRLPRPRPRPDSSPRP | -0.318 |
| RRIRARPPRLPRPRPRPPGWPRP | 1.22 |
| RRIRVRPPRLPRPRPRPSGVPRP | 0.0069 |
| RRIRARPPRLPRPRPRPDWYPRP | -0.213 |
| RRIRPRPPRLPRPRPRPQKWPRP | 0.17 |
| RRIRGRPPRLPRPRPRPNQEPRP | 0.389 |
| RRIRNRPPRLPRPRPRPEQPPRP | 0.0618 |
| RRIRQRPPRLPRPRPRPLDHPRP | -0.198 |
| RRIRPRPPRLPRPRPRPIFPPRP | 0.0704 |

| Sequence | shrunken log2 fold change |
| --- | --- |
| RRIRPRPPRLPRPRPRPIDWPRP | 0.272 |
| RRIRYRPPRLPRPRPRPHGKPRP | 0.0161 |
| RRIRSRPPRLPRPRPRPPFCPRP | 0.135 |
| RRIRHRPPRLPRPRPRPELKPRP | 0.127 |
| RRIRFRPPRLPRPRPRPDFYPRP | -0.105 |
| RRIRARPPRLPRPRPRPWEWPRP | 0.0233 |
| RRIRERPPRLPRPRPRPEKNPRP | -0.126 |
| RRIRRRPPRLPRPRPRPEKLPRP | 0.128 |
| RRIRGRPPRLPRPRPRPHPMPRP | 0.497 |
| RRIRERPPRLPRPRPRPKENPRP | -0.135 |
| RRIRIRPPRLPRPRPRPICTPRP | -0.458 |
| RRIRHRPPRLPRPRPRPQFEPRP | -0.0276 |
| RRIRYRPPRLPRPRPRPTESPRP | 0.0538 |
| RRIRQRPPRLPRPRPRPSGNPRP | -0.323 |
| RRIRARPPRLPRPRPRPTDIPRP | 0.224 |
| RRIRARPPRLPRPRPRPFNWPRP | 0.0857 |
| RRIRSRPPRLPRPRPRPVWKPRP | -0.1 |
| RRIRMRPPRLPRPRPRPACIPRP | 0.112 |
| RRIRMRPPRLPRPRPRPQSKPRP | 0.0671 |
| RRIRERPPRLPRPRPRPPVPPRP | 0.45 |
| RRIRGRPPRLPRPRPRPFINPRP | -0.165 |
| RRIRGRPPRLPRPRPRPDECPRP | -0.00184 |
| RRIRKRPPRLPRPRPRPKDYPRP | -0.0531 |
| RRIRPRPPRLPRPRPRPQTMPRP | 0.235 |
| RRIRARPPRLPRPRPRPNIEPRP | 0.0171 |

| Sequence | shrunken log2 fold change |
| --- | --- |
| RRIRCRPPRLPRPRPRPNSSPRP | -0.366 |
| RRIRLRPPRLPRPRPRPEVLPRP | -0.0871 |
| RRIRGRPPRLPRPRPRPNHQPRP | 0.0643 |
| RRIRWRPPRLPRPRPRPFNGPRP | -0.0132 |
| RRIRDRPPRLPRPRPRPIWLPRP | 0.0516 |
| RRIRSRPPRLPRPRPRPKKQPRP | 0.0417 |
| RRIRARPPRLPRPRPRPNSCPRP | -0.205 |
| RRIRKRPPRLPRPRPRPIWQPRP | 0.163 |
| RRIRNRPPRLPRPRPRPLVYPRP | -0.943 |
| RRIRQRPPRLPRPRPRPWQIPRP | -0.0838 |
| RRIRFRPPRLPRPRPRPGSGPRP | 0.161 |
| RRIRMRPPRLPRPRPRPANTPRP | -0.0215 |
| RRIRIRPPRLPRPRPRPSGLPRP | 0.0161 |
| RRIRSRPPRLPRPRPRPQLSPRP | -0.106 |
| RRIRGRPPRLPRPRPRPQIIPRP | 0.203 |
| RRIRNRPPRLPRPRPRPHFKPRP | -0.52 |
| RRIRQRPPRLPRPRPRPPEMPRP | -0.162 |
| RRIRCRPPRLPRPRPRPNISPRP | 0.039 |
| RRIRSRPPRLPRPRPRPKDVPRP | -0.162 |
| RRIRKRPPRLPRPRPRPFWCPRP | -0.0466 |
| RRIRARPPRLPRPRPRPPDCPRP | 0.56 |
| RRIRSRPPRLPRPRPRPPPQPRP | 0.835 |
| RRIRDRPPRLPRPRPRPPCFPRP | 0.35 |
| RRIRQRPPRLPRPRPRPILSPRP | 0.0165 |
| RRIRHRPPRLPRPRPRPCWAPRP | 0.00936 |

| Sequence | shrunken log2 fold change |
| --- | --- |
| RRIRQRPPRLPRPRPRPLGFPRP | 0.0916 |
| RRIRFRPPRLPRPRPRPYSKPRP | -0.996 |
| RRIRYRPPRLPRPRPRPDRIPRP | -0.00973 |
| RRIRMRPPRLPRPRPRPRAFPRP | 0.918 |
| RRIRLRPPRLPRPRPRPFVQPRP | -0.284 |
| RRIRPRPPRLPRPRPRPAGNPRP | 0.194 |
| RRIRDRPPRLPRPRPRPSCIPRP | 0.0916 |
| RRIRRRPPRLPRPRPRPSLVPRP | 0.243 |
| RRIRVRPPRLPRPRPRPGSNPRP | 0.0377 |
| RRIRERPPRLPRPRPRPYNFPRP | -0.254 |
| RRIRARPPRLPRPRPRPGASPRP | 0.978 |
| RRIRNRPPRLPRPRPRPVRQPRP | 0.0327 |
| RRIRNRPPRLPRPRPRPEYCPRP | 0.00705 |
| RRIRIRPPRLPRPRPRPRDRPRP | -0.0241 |
| RRIRARPPRLPRPRPRPWQVPRP | 0.191 |
| RRIRKRPPRLPRPRPRPRGIPRP | 0.0697 |
| RRIRMRPPRLPRPRPRPMQKPRP | 0.0563 |
| RRIRFRPPRLPRPRPRPYHHPRP | -1.16 |
| RRIRSRPPRLPRPRPRPHHFPRP | 0.0761 |
| RRIRGRPPRLPRPRPRPSYRPRP | -0.144 |
| RRIRDRPPRLPRPRPRPDPEPRP | 0.0311 |
| RRIRGRPPRLPRPRPRPCVYPRP | 0.486 |
| RRIRHRPPRLPRPRPRPCPIPRP | -0.0539 |
| RRIRYRPPRLPRPRPRPSTKPRP | -0.225 |
| RRIRYRPPRLPRPRPRPCFQPRP | -0.267 |

| Sequence | shrunken log2 fold change |
| --- | --- |
| RRIRQRPPRLPRPRPRPRHMPRP | -0.316 |
| RRIRVRPPRLPRPRPRPENTPRP | -0.0389 |
| RRIRNRPPRLPRPRPRPYHTPRP | -0.0317 |
| RRIRDRPPRLPRPRPRPGLQPRP | 0.56 |
| RRIRQRPPRLPRPRPRPMCPPRP | 0.00821 |
| RRIRPRPPRLPRPRPRPHTWPRP | -0.0512 |
| RRIRYRPPRLPRPRPRPYEKPRP | -0.117 |
| RRIRSRPPRLPRPRPRPDMCPRP | 0.0552 |
| RRIRMRPPRLPRPRPRPTRGPRP | 1.57 |
| RRIRPRPPRLPRPRPRPPAHPRP | 0.466 |
| RRIRERPPRLPRPRPRPYVWPRP | -0.401 |
| RRIRHRPPRLPRPRPRPTSTPRP | -0.199 |
| RRIRNRPPRLPRPRPRPDPKPRP | -0.00647 |
| RRIRDRPPRLPRPRPRPDPPPRP | 0.627 |
| RRIRDRPPRLPRPRPRPECDPRP | 1.39 |
| RRIRERPPRLPRPRPRPYTRPRP | -0.252 |
| RRIRPRPPRLPRPRPRPPTNPRP | 0.222 |
| RRIRLRPPRLPRPRPRPGMIPRP | -0.419 |
| RRIRRRPPRLPRPRPRPWQRPRP | 0.188 |
| RRIRIRPPRLPRPRPRPQGRPRP | -0.25 |
| RRIRERPPRLPRPRPRPHLHPRP | -0.485 |
| RRIRYRPPRLPRPRPRPGRDPRP | -0.204 |
| RRIRNRPPRLPRPRPRPQRPPRP | 0.206 |
| RRIRPRPPRLPRPRPRPGMKPRP | -0.257 |
| RRIRARPPRLPRPRPRPDRAPRP | 0.642 |

| Sequence | shrunken log2 fold change |
| --- | --- |
| RRIRFRPPRLPRPRPRPGWRPRP | 0.536 |
| RRIRCRPPRLPRPRPRPTAVPRP | 0.393 |
| RRIRRRPPRLPRPRPRPDNMPRP | -0.259 |
| RRIRLRPPRLPRPRPRPKCIPRP | -0.9 |
| RRIRFRPPRLPRPRPRPHHPPRP | -0.374 |
| RRIRWRPPRLPRPRPRPDFNPRP | -0.0747 |
| RRIRRRPPRLPRPRPRPENMPRP | 0.0592 |
| RRIRGRPPRLPRPRPRPSRSPRP | 0.253 |
| RRIRKRPPRLPRPRPRPWLMPRP | 0.0931 |
| RRIRDRPPRLPRPRPRPSDVPRP | -0.022 |
| RRIRPRPPRLPRPRPRPTIRPRP | 0.172 |
| RRIRIRPPRLPRPRPRPHANPRP | -0.181 |
| RRIRHRPPRLPRPRPRPKQTPRP | 0.179 |
| RRIRYRPPRLPRPRPRPRDIPRP | -0.0839 |
| RRIRMRPPRLPRPRPRPYDQPRP | 0.102 |
| RRIRNRPPRLPRPRPRPMLFPRP | -0.301 |
| RRIRTRPPRLPRPRPRPLWHPRP | -0.221 |
| RRIRKRPPRLPRPRPRPIMQPRP | -0.0251 |
| RRIRKRPPRLPRPRPRPLRNPRP | 0.653 |
| RRIRWRPPRLPRPRPRPFLMPRP | -0.115 |
| RRIRIRPPRLPRPRPRPWEMPRP | 0.177 |
| RRIRVRPPRLPRPRPRPTWIPRP | 0.216 |
| RRIRNRPPRLPRPRPRPHHLPRP | -0.427 |
| RRIRGRPPRLPRPRPRPGANPRP | 0.874 |
| RRIRNRPPRLPRPRPRPHMMPRP | -0.326 |
